Assay results as given in patent US20240294651A1 (KYMAB, published 2024).

B1: CL-83083 (antibody, human IgG4 S228P, lambda)
heavy: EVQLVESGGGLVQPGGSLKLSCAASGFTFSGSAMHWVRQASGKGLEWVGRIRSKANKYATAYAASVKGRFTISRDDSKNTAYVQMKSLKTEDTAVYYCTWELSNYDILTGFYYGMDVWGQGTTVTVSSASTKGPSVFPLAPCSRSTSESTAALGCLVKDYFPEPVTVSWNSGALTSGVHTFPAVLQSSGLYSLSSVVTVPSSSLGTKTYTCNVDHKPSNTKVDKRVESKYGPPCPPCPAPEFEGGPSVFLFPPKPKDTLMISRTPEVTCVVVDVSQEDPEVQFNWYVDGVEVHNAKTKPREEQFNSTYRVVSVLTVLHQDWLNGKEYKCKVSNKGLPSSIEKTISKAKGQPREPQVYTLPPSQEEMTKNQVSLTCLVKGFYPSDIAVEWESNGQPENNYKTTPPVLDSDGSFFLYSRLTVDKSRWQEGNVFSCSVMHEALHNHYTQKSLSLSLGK
light: QAGLTQPPSVSKGLRQTATLTCTGNSNNVGNLGAAWLQQHQGHPPKLLSYRNNNRPSGISERFFASRSGNTASLTITGLQPEDEADYYCSAWDSSLSAWVFGGGTKLTVLGQPKAAPSVTLFPPSSEELQANKATLVCLISDFSPGAVTVAWKADSSPVKAGVETTTPSKQSNNKYAASSYLSLTPEQWKSHKSYSCQVTHEGSTVKKTVAPTECS
notes: Tested in human IgG4-PE format; lambda light chain; also called CL-83083 (IgG4-PE format)
B2: CL-83083-2 (antibody, human IgG4 S228P, lambda)
heavy: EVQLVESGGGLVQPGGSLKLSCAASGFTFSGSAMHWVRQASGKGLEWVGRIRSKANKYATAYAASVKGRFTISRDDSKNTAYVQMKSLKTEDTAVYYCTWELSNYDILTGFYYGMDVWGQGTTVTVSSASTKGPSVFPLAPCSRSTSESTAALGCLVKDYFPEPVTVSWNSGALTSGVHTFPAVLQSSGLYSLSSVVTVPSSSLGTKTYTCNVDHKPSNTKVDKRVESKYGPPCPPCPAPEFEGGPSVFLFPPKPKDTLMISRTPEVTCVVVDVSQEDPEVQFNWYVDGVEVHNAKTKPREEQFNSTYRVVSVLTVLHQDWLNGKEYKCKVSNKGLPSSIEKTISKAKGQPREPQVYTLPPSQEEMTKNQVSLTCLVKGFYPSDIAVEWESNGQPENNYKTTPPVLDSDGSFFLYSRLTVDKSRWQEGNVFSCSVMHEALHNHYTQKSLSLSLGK
light: QAGLTQPPSVSKGLRQTATLTCTGNSNNVGNLGAAWLQQHQGHPPKLLSYRNNNRPSGISERFFASRSGNTASLTITGLQPEDEADYYCSAWDSSLSAWVFGGGTKLTVLGQPKAAPSVTLFPPSSEELQANKATLVCLISDFYPGAVTVAWKADSSPVKAGVETTTPSKQSNNKYAASSYLSLTPEQWKSHKSYSCQVTHEGSTVEKTVAPTECS
notes: Same variable domains as CL-83083, different lambda constant region; tested in human IgG4-PE format; also called CL-83083-2 (IgG4-PE format)
B3: CL-82574 (antibody, human IgG4 S228P, kappa)
heavy: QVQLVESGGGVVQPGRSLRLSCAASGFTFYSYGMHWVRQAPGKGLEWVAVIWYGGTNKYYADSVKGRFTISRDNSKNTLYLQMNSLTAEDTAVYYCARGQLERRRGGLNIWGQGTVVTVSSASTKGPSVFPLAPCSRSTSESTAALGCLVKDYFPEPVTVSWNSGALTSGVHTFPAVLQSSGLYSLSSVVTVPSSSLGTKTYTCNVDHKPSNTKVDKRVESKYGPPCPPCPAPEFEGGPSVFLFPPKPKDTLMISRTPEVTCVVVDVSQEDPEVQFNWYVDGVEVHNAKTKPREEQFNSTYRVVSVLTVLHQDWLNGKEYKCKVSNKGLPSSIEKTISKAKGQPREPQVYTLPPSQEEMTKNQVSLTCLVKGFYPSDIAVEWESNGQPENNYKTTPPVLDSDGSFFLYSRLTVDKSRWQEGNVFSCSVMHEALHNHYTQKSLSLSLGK
light: DIQMTQSPSSLSASVGDRVTITCRASQGVRDDLGWYQQKPGKAPKRLIYAASSLQSGVPSRFSGSGSGTEFTLTISSLQPEDFATYYCLQHNSYPFTFGPGTKVDIKRTVAAPSVFIFPPSDEQLKSGTASVVCLLNNFYPREAKVQWKVDNALQSGNSQESVTEQDSKDSTYSLSSTLTLSKADYEKHKVYACEVTHQGLSSPVTKSFNRGEC
notes: Tested in human IgG4-PE format; also called CL-82574 (IgG4-PE format)
B4: CL-82458 (antibody, human IgG4 S228P, kappa, V domains shown)
VH: EVQLVESGGDLVQPGGSLRLSCAASGFTFYSYAMNWVRQAPGKGLKWVSGISGSGDITYYADSVKGRFTISRDNSKNTLYLQMHSLRPEDTAIYYCAKGQLERRYYKYYGMDVWGQGTTVTVSS
VL: DIQMTQSPSSLSASVGDRVTITCRANQGIRNDLGWYQQKPGKAPKRLIYGASSLKSGVPSRFSGSGSGTEFTLTISSLQPEDFATYYCLQQNSYPLTFGGGTKVEIKR
notes: Tested in human IgG4-PE format; also called CL-82458 (IgG4-PE format)
B5: CL-82458 Fab fragment (Fab, V domains shown)
VH: EVQLVESGGDLVQPGGSLRLSCAASGFTFYSYAMNWVRQAPGKGLKWVSGISGSGDITYYADSVKGRFTISRDNSKNTLYLQMHSLRPEDTAIYYCAKGQLERRYYKYYGMDVWGQGTTVTVSS
VL: DIQMTQSPSSLSASVGDRVTITCRANQGIRNDLGWYQQKPGKAPKRLIYGASSLKSGVPSRFSGSGSGTEFTLTISSLQPEDFATYYCLQQNSYPLTFGGGTKVEIK
notes: Purified Fab fragment
B6: CL-82574 Fab fragment (Fab, V domains shown)
VH: QVQLVESGGGVVQPGRSLRLSCAASGFTFYSYGMHWVRQAPGKGLEWVAVIWYGGTNKYYADSVKGRFTISRDNSKNTLYLQMNSLTAEDTAVYYCARGQLERRRGGLNIWGQGTVVTVSS
VL: DIQMTQSPSSLSASVGDRVTITCRASQGVRDDLGWYQQKPGKAPKRLIYAASSLQSGVPSRFSGSGSGTEFTLTISSLQPEDFATYYCLQHNSYPFTFGPGTKVDIK
notes: Purified Fab fragment
B7: CL-82658 Fab fragment (Fab, V domains shown)
VH: QVQLVESGGGVVQPGRSLRLSCAASGFSFSSYGMHWVRQAPGKGLEWVAVISYDGSNKYYADSVKGRFTISRDNSKNTLYLQMNSLRGEDTAVYYCSKGSLTPRRGYYYSYGMDVWGQGTTVTVSS
VL: DIQMTQSPSSLSASVGDRVTITCRASQGIRNDLSWYQQKPGKAPKRLIYAASSLQSGVPSRFSGSGSGTEFTLTISSLQPEDFATYYCLQHNGYPFTFGPGTKVDIK
notes: Purified Fab fragment
B8: CL-83083 Fab fragment (Fab, V domains shown)
VH: EVQLVESGGGLVQPGGSLKLSCAASGFTFSGSAMHWVRQASGKGLEWVGRIRSKANKYATAYAASVKGRFTISRDDSKNTAYVQMKSLKTEDTAVYYCTWELSNYDILTGFYYGMDVWGQGTTVTVSS
VL: QAGLTQPPSVSKGLRQTATLTCTGNSNNVGNLGAAWLQQHQGHPPKLLSYRNNNRPSGISERFFASRSGNTASLTITGLQPEDEADYYCSAWDSSLSAWVFGGGTKLTVL
notes: Purified Fab fragment

Experiments:
[1] = target: T1, human CXCR4 (cell-expressed) (human, UniProt P61073 1-352); experiment: cell-based or functional assay
T1 sequence (P61073 whole entry): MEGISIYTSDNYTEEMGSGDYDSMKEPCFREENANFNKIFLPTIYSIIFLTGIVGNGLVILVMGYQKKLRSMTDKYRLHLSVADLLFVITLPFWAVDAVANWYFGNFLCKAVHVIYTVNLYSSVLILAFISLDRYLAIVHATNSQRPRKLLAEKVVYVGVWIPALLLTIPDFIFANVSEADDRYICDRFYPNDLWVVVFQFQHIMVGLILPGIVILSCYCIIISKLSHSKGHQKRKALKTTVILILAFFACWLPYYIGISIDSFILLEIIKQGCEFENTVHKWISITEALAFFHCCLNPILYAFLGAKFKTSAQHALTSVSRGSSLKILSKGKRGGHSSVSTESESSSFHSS

cynomolgus CXCR4 [2] = target: T2, cynomolgus CXCR4 (cynomolgus monkey, UniProt Q28474 1-352); experiment: cell-based or functional assay
T2 sequence (Q28474 whole entry): as the sequence (P61073 whole entry) above, with M24I, N35H, K38R, R146K, N176S counted along it

[3] = target: T1, human CXCR4 (cell-expressed); experiment: cell-based or functional assay; remark: listed apart in the source
human CXCR7 = target: T3, human CXCR7 (human, UniProt P25106 1-362); experiment: flow cytometry on CHO-S cells expressing human CXCR7, Alexa Fluor 647 secondary antibody, GeoMean (647 nm)
T3 construct: Expressed on CHO-S cells
T3 sequence (P25106 whole entry): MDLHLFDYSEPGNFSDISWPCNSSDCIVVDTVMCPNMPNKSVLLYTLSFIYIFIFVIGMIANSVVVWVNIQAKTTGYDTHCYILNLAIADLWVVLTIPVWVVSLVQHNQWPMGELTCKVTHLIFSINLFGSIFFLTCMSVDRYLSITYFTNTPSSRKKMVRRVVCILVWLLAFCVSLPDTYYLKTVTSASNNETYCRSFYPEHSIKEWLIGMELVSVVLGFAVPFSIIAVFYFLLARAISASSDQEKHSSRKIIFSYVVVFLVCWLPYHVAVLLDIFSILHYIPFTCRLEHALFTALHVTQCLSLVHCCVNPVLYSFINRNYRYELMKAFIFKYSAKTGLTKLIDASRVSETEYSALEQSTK
Procedure: CXCR7 expressing CHO-S cells were plated at 100 μL/well of cells at 1 million of cells/mL (0.1 million of cells/well) into a 96 well V-bottom plate (Greiner). Plates were centrifuged at 300×g for 3 min at 4° C. and supernatant discarded. […] Primary antibody dilutions were added to cells (100 μL/well) and cell pellets resuspended by pipetting. Plate was incubated for 1 h at 4° C. 100 μL/well of PBS, was added and plates centrifuged at 300×g for 3 min at 4° C. and supernatant discarded. This step was repeated twice. […] Cells were resuspended by pipetting. Plate was incubated for 1 h at 4° C. 100 μL/well of PBS, was added and plates centrifuged at 300×g for 3 min at 4° C. and supernatant discarded. This step was repeated twice. Finally, cells were resuspended in 100 μL/well of PBS and analysed on CytoFLEX (Beckman Coulter).
Binding of antibodies to CXCR7 expressed on CHO-S cells was analysed by gating the main cell population using forward and side scatter (Flow Jo, Flow Jo LLC) to allow for doublet discrimination.

cynomolgus CXCR4 [4] = target: T2, cynomolgus CXCR4; experiment: flow cytometry on CHO-S cells expressing cynomolgus CXCR4
Procedure: Cynomolgus monkey CXCR4 expressing CHO-S cells were plated at 100 uL/well of cells at 1 million of cells/mL (0.1 million of cells/well) into a 96 well V-bottom plate (Greiner). Plates were centrifuged at 300×g for 3 min at 4° C. and supernatant discarded. […] Primary antibody dilutions were added to cells (50 μL/well) and cell pellets resuspended by pipetting. Plates was incubated for 1 h at 4° C. 100 μL/well of PBS, was added and plates centrifuged at 300×g for 3 min at 4° C. and supernatant discarded. This step was repeated twice. […] Cells were resuspended by pipetting. Plates were incubated for 1 h at 4° C. 100 μL/well PBS, was added and plates centrifuged at 300×g for 3 min at 4° C. and supernatant discarded. This step was repeated twice. Finally, cells were resuspended in 100 μL/well of PBS and analysed on CytoFLEX (Beckman Coulter).
Binding of antibodies to cynomolgus CXCR4 expressed on CHO-S cells was analysed by gating the main cell population using forward and side scatter (Flow Jo, Flow Jo LLC) to allow for doublet discrimination. […] EC₅₀ values were calculated by transforming the data and fitting a 4-parameter logistic regression curve to each antibody titration.

[5] = target: T1, human CXCR4 (cell-expressed); experiment: cell-based or functional assay; remark: listed apart in the source
[6] = target: T1, human CXCR4 (cell-expressed); experiment: cell-based or functional assay; remark: listed apart in the source
[7] = target: T4, terbium-labelled SNAP-CXCR4 on HEK-293 cells (Cisbio C1TT1CXCR4) (human, UniProt P61072 1-352 (Pan troglodytes entry), terbium label on the SNAP tag); experiment: TR-FRET (Tag-lite) competition with AlexaFluor 647-CXCL12 on terbium-labelled SNAP-CXCR4 HEK-293 cells
T4 construct: Bought assay-ready cells; also called CXCR4 expressing cells; not shown: SNAP tag
T4 sequence (P61072 whole entry): as the sequence (P61073 whole entry) above

[8] = target: T1, human CXCR4 (cell-expressed); experiment: cell-based or functional assay; remark: listed apart in the source
CXCR4 StaR nanodiscs = target: T5, CXCR4 StaR nanodiscs; experiment: SPR (Biacore T200), IgG4-PE antibody captured by anti-IgG on CM5, CXCR4 StaR nanodiscs at 250 nM as analyte, 25 C, 1:1 model; N = 1
T5 construct: Purified receptor in lipid-protein nanodiscs; also called StaR CXCR4; thermostabilised CXCR4
Procedure: Anti-IgG antibodies were immobilised on chip CM5 (GE Healthcare) by amine coupling. […] A channel with no anti-CXCR4 antibodies captured was used as a reference. […] The blank-subtracted sensorgrams were fitted to the 1:1 interaction model using the Biacore T200 evaluation software. The assay was run at 25° C. using 0.01 M HEPES pH 7.4, 0.15 M NaCl as running buffer.

[9] = target: T1, human CXCR4 (cell-expressed); experiment: cell-based or functional assay; remark: listed apart in the source
[10] = target: T1, human CXCR4 (cell-expressed); experiment: cell-based or functional assay; remark: listed apart in the source
[11] = target: T6, biotinylated CXCR4-virus like particle (Integral Molecular, Lot INT-1793B) (human, UniProt P61073 1-352, VLP biotinylated, sites not stated); experiment: SPR (Biacore 8K), biotinylated CXCR4 VLP captured on SA chip, Fab as analyte, 25 C, 1:1 model
T6 construct: also called hCXCR4 VLP; CXCR4 VLP
T6 sequence (P61073 whole entry): as above

| Binder | % effect (remaining % of CXCL12 response), DMR assay, human T-cells [1] | IC50, label-free DMR assay, isolated human T-cells, EC80 CXCL12 [1] | % Maximum Inhibition, cAMP HTRF assay, cyno CXCR4 BacMam HEK-293 cells (cynomolgus CXCR4 [2]) | IC50, cAMP HTRF assay, cyno CXCR4 BacMam HEK-293 cells (cynomolgus CXCR4 [2]) | % Max Inhibition, cAMP HTRF assay, CXCR4 BacMam HEK-293 cells [3] | IC50, cAMP HTRF assay, CXCR4 BacMam HEK-293 cells, 5.5 nM CXCL12 [3] | binding result (human CXCR7) | EC50 (cynomolgus CXCR4 [4]) | % Max Inhibition, beta-arrestin reporter assay, Tango CXCR4-bla U2OS cells [5] | IC50, beta-arrestin reporter assay, Tango CXCR4-bla U2OS cells, 30 nM CXCL12 [5] | % of max migration at 120 nM Ab, primary naïve T-cell trans-well migration [6] | % Max Inhibition [7] | IC50 [7] | IC50 n = 1, Jurkat chemotaxis towards 30 nM CXCL12 (IncuCyte) [8] | IC50 n = 2, Jurkat chemotaxis towards 30 nM CXCL12 (IncuCyte) [8] | IC50 n = 3, Jurkat chemotaxis towards 30 nM CXCL12 (IncuCyte) [8] | Mean IC50, Jurkat chemotaxis towards 30 nM CXCL12 (IncuCyte) [8] | Kd [11] | koff [11] | kon [11] | further results |
| --- | --- | --- | --- | --- | --- | --- | --- | --- | --- | --- | --- | --- | --- | --- | --- | --- | --- | --- | --- | --- | --- |
| B1 | 5.1% | 3.58 nM | 84% | 11.8 nM | 80% | 36 nM | no binding (tested: log(M) about -6.9 (about 1.2e-7 M)) | 11 nM | 98.9% | 0.43 nM | 25.7% | 96% | 1.74 nM | 0.47 nM | 0.43 nM | 0.34 nM | 0.41 nM |  |  |  | IC50, primary naïve T-cell trans-well migration [6]: 1.55 nM; Kd (CXCR4 StaR nanodiscs): 7.1 nM; koff (CXCR4 StaR nanodiscs): 0.00097 s⁻¹; kon (CXCR4 StaR nanodiscs): 140000 M⁻¹ s⁻¹; Max Signal (Total Overlap Object Area), internalisation on Ramos cells, live-cell imaging [9]: 9670 µm^2 per image; IC50 of antibody in presence of 30 nM CXCL12, human T-cell transwell chemotaxis [10]: 0.35 not printed (nM assumed) |
| B2 | 4.4% | 3.98 nM |  |  | 93% | 44 nM |  |  | 96.9% | 0.79 nM |  | 97% | 3.92 nM |  |  |  |  |  |  |  |  |
| B3 | 0.68% | 2.09 nM | 90% | 1.2 nM | 96% | 21 nM | no binding (tested: log(M) about -6.9 (about 1.2e-7 M)) | 3.5 nM | 99.5% | 0.14 nM | 5.44% | 98% | 0.63 nM | 0.32 nM | 0.62 nM | 0.63 nM | 0.52 nM |  |  |  | IC50, primary naïve T-cell trans-well migration [6]: 0.95 nM; Kd (CXCR4 StaR nanodiscs): 8 nM; koff (CXCR4 StaR nanodiscs): 0.00088 s⁻¹; kon (CXCR4 StaR nanodiscs): 110000 M⁻¹ s⁻¹; Max Signal (Total Overlap Object Area), internalisation on Ramos cells, live-cell imaging [9]: 18100 µm^2 per image; IC50 of antibody in presence of 30 nM CXCL12, human T-cell transwell chemotaxis [10]: 0.21 not printed (nM assumed) |
| B4 | 2% | 12.1 nM | 78% | 2 nM | 88% | 40 nM | no binding (tested: log(M) about -6.9 (about 1.2e-7 M)) | 2.2 nM | 102% | 0.31 nM | 17.6% | 99% | 0.79 nM | 2.18 nM | 3.43 nM | 1.66 nM | 2.42 nM |  |  |  | Kd (CXCR4 StaR nanodiscs): 7.5 nM; koff (CXCR4 StaR nanodiscs): 0.00046 s⁻¹; kon (CXCR4 StaR nanodiscs): 61000 M⁻¹ s⁻¹; Max Signal (Total Overlap Object Area), internalisation on Ramos cells, live-cell imaging [9]: 20800 µm^2 per image; IC50 of antibody in presence of 30 nM CXCL12, human T-cell transwell chemotaxis [10]: 0.26 not printed (nM assumed) |
| B5 |  |  |  |  |  |  |  |  |  |  |  |  |  |  |  |  |  | 1.26 nM | 0.00111 s⁻¹ | 887000 M⁻¹ s⁻¹ |  |
| B6 |  |  |  |  |  |  |  |  |  |  |  |  |  |  |  |  |  | 0.52 nM | 0.000481 s⁻¹ | 927000 M⁻¹ s⁻¹ |  |
| B7 |  |  |  |  |  |  |  |  |  |  |  |  |  |  |  |  |  | 0.69 nM | 0.000423 s⁻¹ | 616000 M⁻¹ s⁻¹ |  |
| B8 |  |  |  |  |  |  |  |  |  |  |  |  |  |  |  |  |  | 1.86 nM | 0.00102 s⁻¹ | 546000 M⁻¹ s⁻¹ |  |
